B1: BTE-0151 (bispecific antibody, human IgG1, kappa, L234A L235A)
heavy: QVQLQQWGAGLLKPSETLSLTCAVYGGSFSPYYWSWIRQPPGKGLEWIGEINHSGSTNYNPSLKSRVTISVDTSKNQFSLKLSSVTAADTAVYYCARRAGDFDYWGQGTLVTVSSASTKGPSVFPLAPSSKSTSGGTAALGCLVKDYFPEPVTVSWNSGALTSGVHTFPAVLQSSGLYSLSSVVTVPSSSLGTQTYICNVNHKPSNTKVDKKVEPKSCDKTHTCPPCPAPEAAGGPSVFLFPPKPKDTLMISRTPEVTCVVVDVSHEDPEVKFNWYVDGVEVHNAKTKPREEQYNSTYRVVSVLTVLHQDWLNGKEYKCKVSNKALAAPIEKTISKAKGQPREPQVYTLPPSRDELTKNQVSLSCAVKGFYPSDIAVEWESNGQPENNYKTTPPVLDSDGSFFLVSKLTVDKSRWQQGNVFSCSVMHEALHNHYTQKSLSLSPGK
light: not shown
scFv: not shown
notes: anti-CD37/anti-CD3
B2: BTE-0143 (bispecific antibody, human IgG1, kappa, L234A L235A)
heavy: QVQLQQWGAGLLKPSETLSLTCAVYGGSFSPYYWSWIRQPPGKGLEWIGEINHSGSTNYNPSLKSRVTISVDTSKNQFSLKLSSVTAADTAVYYCARRAGDFDYWGQGTLVTVSSASTKGPSVFPLAPSSKSTSGGTAALGCLVKDYFPEPVTVSWNSGALTSGVHTFPAVLQSSGLYSLSSVVTVPSSSLGTQTYICNVNHKPSNTKVDKKVEPKSCDKTHTCPPCPAPEAAGGPSVFLFPPKPKDTLMISRTPEVTCVVVDVSHEDPEVKFNWYVDGVEVHNAKTKPREEQYNSTYRVVSVLTVLHQDWLNGKEYKCKVSNKALAAPIEKTISKAKGQPREPQVYTLPPSRDELTKNQVSLSCAVKGFYPSDIAVEWESNGQPENNYKTTPPVLDSDGSFFLVSKLTVDKSRWQQGNVFSCSVMHEALHNHYTQKSLSLSPGK
light: not shown
scFv: not shown
notes: anti-CD37/anti-CD3
B3: BTE-0136 (bispecific antibody, human IgG1, kappa, L234A L235A)
heavy: QVQLQQWGAGLLKPSETLSLTCAVYGGSFSPYYWSWIRQPPGKGLEWIGEINHSGSTNYNPSLKSRVTISVDTSKNQFSLKLSSVTAADTAVYYCARRAGDFDYWGQGTLVTVSSASTKGPSVFPLAPSSKSTSGGTAALGCLVKDYFPEPVTVSWNSGALTSGVHTFPAVLQSSGLYSLSSVVTVPSSSLGTQTYICNVNHKPSNTKVDKKVEPKSCDKTHTCPPCPAPEAAGGPSVFLFPPKPKDTLMISRTPEVTCVVVDVSHEDPEVKFNWYVDGVEVHNAKTKPREEQYNSTYRVVSVLTVLHQDWLNGKEYKCKVSNKALAAPIEKTISKAKGQPREPQVYTLPPSRDELTKNQVSLSCAVKGFYPSDIAVEWESNGQPENNYKTTPPVLDSDGSFFLVSKLTVDKSRWQQGNVFSCSVMHEALHNHYTQKSLSLSPGK
light: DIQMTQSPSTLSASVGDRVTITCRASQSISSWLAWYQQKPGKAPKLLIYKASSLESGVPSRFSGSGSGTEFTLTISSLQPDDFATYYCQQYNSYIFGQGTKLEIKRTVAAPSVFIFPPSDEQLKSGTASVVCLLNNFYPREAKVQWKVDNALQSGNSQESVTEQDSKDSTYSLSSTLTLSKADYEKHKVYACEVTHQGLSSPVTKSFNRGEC
scFv: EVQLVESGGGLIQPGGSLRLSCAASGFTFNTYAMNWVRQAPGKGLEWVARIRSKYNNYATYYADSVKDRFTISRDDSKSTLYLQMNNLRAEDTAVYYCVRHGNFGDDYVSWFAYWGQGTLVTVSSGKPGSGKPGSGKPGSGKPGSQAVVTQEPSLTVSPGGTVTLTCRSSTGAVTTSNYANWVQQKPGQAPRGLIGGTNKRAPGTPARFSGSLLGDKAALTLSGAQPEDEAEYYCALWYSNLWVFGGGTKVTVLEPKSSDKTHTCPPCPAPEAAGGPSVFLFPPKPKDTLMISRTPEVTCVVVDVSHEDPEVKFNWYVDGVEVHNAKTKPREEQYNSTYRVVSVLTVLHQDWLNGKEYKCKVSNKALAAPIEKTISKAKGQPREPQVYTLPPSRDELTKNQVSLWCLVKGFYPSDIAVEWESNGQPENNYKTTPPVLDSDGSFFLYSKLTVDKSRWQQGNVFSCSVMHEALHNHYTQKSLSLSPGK
notes: anti-CD37/anti-CD3
B4: BTE-0142 (bispecific antibody, human IgG1, kappa, L234A L235A)
heavy: QVQLQQWGAGLLKPSETLSLTCAVYGGSFSPYYWSWIRQPPGKGLEWIGEINHSGSTNYNPSLKSRVTISVDTSKNQFSLKLSSVTAADTAVYYCARRAGDFDYWGQGTLVTVSSASTKGPSVFPLAPSSKSTSGGTAALGCLVKDYFPEPVTVSWNSGALTSGVHTFPAVLQSSGLYSLSSVVTVPSSSLGTQTYICNVNHKPSNTKVDKKVEPKSCDKTHTCPPCPAPEAAGGPSVFLFPPKPKDTLMISRTPEVTCVVVDVSHEDPEVKFNWYVDGVEVHNAKTKPREEQYNSTYRVVSVLTVLHQDWLNGKEYKCKVSNKALAAPIEKTISKAKGQPREPQVYTLPPSRDELTKNQVSLSCAVKGFYPSDIAVEWESNGQPENNYKTTPPVLDSDGSFFLVSKLTVDKSRWQQGNVFSCSVMHEALHNHYTQKSLSLSPGK
light: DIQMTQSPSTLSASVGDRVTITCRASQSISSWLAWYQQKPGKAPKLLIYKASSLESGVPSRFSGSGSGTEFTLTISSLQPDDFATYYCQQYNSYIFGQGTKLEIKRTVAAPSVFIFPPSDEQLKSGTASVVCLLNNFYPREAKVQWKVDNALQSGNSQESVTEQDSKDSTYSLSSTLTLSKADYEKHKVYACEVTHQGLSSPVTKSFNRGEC
scFv: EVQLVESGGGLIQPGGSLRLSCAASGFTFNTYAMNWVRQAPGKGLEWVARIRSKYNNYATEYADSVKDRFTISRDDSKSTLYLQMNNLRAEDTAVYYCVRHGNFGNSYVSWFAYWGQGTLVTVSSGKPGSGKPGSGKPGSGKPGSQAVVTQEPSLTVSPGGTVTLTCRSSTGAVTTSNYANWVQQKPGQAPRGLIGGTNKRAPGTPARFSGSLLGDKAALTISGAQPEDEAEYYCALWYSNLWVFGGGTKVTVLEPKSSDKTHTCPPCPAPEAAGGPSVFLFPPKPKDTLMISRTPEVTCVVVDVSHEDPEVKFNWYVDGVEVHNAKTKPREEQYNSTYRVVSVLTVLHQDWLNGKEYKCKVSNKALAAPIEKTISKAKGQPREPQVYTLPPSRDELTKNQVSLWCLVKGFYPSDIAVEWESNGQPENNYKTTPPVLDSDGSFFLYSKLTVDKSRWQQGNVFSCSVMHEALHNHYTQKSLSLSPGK
notes: anti-CD37/anti-CD3
B5: BTE-0138 (bispecific antibody, human IgG1, kappa, L234A L235A)
heavy: QVQLQQWGAGLLKPSETLSLTCAVYGGSFSPYYWSWIRQPPGKGLEWIGEINHSGSTNYNPSLKSRVTISVDTSKNQFSLKLSSVTAADTAVYYCARRAGDFDYWGQGTLVTVSSASTKGPSVFPLAPSSKSTSGGTAALGCLVKDYFPEPVTVSWNSGALTSGVHTFPAVLQSSGLYSLSSVVTVPSSSLGTQTYICNVNHKPSNTKVDKKVEPKSCDKTHTCPPCPAPEAAGGPSVFLFPPKPKDTLMISRTPEVTCVVVDVSHEDPEVKFNWYVDGVEVHNAKTKPREEQYNSTYRVVSVLTVLHQDWLNGKEYKCKVSNKALAAPIEKTISKAKGQPREPQVYTLPPSRDELTKNQVSLSCAVKGFYPSDIAVEWESNGQPENNYKTTPPVLDSDGSFFLVSKLTVDKSRWQQGNVFSCSVMHEALHNHYTQKSLSLSPGK
light: not shown
scFv: not shown
notes: anti-CD37/anti-CD3
B6: BTE-0141 (bispecific antibody, human IgG1, kappa, L234A L235A)
heavy: QVQLQQWGAGLLKPSETLSLTCAVYGGSFSPYYWSWIRQPPGKGLEWIGEINHSGSTNYNPSLKSRVTISVDTSKNQFSLKLSSVTAADTAVYYCARRAGDFDYWGQGTLVTVSSASTKGPSVFPLAPSSKSTSGGTAALGCLVKDYFPEPVTVSWNSGALTSGVHTFPAVLQSSGLYSLSSVVTVPSSSLGTQTYICNVNHKPSNTKVDKKVEPKSCDKTHTCPPCPAPEAAGGPSVFLFPPKPKDTLMISRTPEVTCVVVDVSHEDPEVKFNWYVDGVEVHNAKTKPREEQYNSTYRVVSVLTVLHQDWLNGKEYKCKVSNKALAAPIEKTISKAKGQPREPQVYTLPPSRDELTKNQVSLSCAVKGFYPSDIAVEWESNGQPENNYKTTPPVLDSDGSFFLVSKLTVDKSRWQQGNVFSCSVMHEALHNHYTQKSLSLSPGK
light: not shown
scFv: not shown
notes: anti-CD37/anti-CD3
B7: BTE-0137 (bispecific antibody, human IgG1, kappa, L234A L235A)
heavy: QVQLQQWGAGLLKPSETLSLTCAVYGGSFSPYYWSWIRQPPGKGLEWIGEINHSGSTNYNPSLKSRVTISVDTSKNQFSLKLSSVTAADTAVYYCARRAGDFDYWGQGTLVTVSSASTKGPSVFPLAPSSKSTSGGTAALGCLVKDYFPEPVTVSWNSGALTSGVHTFPAVLQSSGLYSLSSVVTVPSSSLGTQTYICNVNHKPSNTKVDKKVEPKSCDKTHTCPPCPAPEAAGGPSVFLFPPKPKDTLMISRTPEVTCVVVDVSHEDPEVKFNWYVDGVEVHNAKTKPREEQYNSTYRVVSVLTVLHQDWLNGKEYKCKVSNKALAAPIEKTISKAKGQPREPQVYTLPPSRDELTKNQVSLSCAVKGFYPSDIAVEWESNGQPENNYKTTPPVLDSDGSFFLVSKLTVDKSRWQQGNVFSCSVMHEALHNHYTQKSLSLSPGK
light: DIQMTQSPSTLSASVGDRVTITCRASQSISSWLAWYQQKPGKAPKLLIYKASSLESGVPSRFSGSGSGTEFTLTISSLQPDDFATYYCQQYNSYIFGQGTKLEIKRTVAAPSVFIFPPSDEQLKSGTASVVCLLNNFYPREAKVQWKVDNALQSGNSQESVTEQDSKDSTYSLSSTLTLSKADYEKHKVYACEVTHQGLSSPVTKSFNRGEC
scFv: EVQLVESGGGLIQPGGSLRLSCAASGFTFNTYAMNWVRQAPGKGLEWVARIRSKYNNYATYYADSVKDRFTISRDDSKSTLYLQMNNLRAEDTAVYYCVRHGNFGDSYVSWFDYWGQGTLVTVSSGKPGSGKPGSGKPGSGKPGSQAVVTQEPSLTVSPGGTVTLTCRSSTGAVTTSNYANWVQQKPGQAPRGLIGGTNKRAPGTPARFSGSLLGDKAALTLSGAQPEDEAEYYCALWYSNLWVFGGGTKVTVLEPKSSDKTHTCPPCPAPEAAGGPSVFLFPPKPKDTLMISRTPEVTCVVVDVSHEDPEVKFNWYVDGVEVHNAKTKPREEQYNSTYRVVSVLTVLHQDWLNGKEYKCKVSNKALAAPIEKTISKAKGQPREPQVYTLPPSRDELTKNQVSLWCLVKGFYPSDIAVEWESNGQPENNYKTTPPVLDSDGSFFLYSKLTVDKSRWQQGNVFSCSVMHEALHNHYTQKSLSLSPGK
notes: anti-CD37/anti-CD3
B8: BTE-0144 (bispecific antibody, human IgG1, kappa, L234A L235A)
heavy: QVQLQQWGAGLLKPSETLSLTCAVYGGSFSPYYWSWIRQPPGKGLEWIGEINHSGSTNYNPSLKSRVTISVDTSKNQFSLKLSSVTAADTAVYYCARRAGDFDYWGQGTLVTVSSASTKGPSVFPLAPSSKSTSGGTAALGCLVKDYFPEPVTVSWNSGALTSGVHTFPAVLQSSGLYSLSSVVTVPSSSLGTQTYICNVNHKPSNTKVDKKVEPKSCDKTHTCPPCPAPEAAGGPSVFLFPPKPKDTLMISRTPEVTCVVVDVSHEDPEVKFNWYVDGVEVHNAKTKPREEQYNSTYRVVSVLTVLHQDWLNGKEYKCKVSNKALAAPIEKTISKAKGQPREPQVYTLPPSRDELTKNQVSLSCAVKGFYPSDIAVEWESNGQPENNYKTTPPVLDSDGSFFLVSKLTVDKSRWQQGNVFSCSVMHEALHNHYTQKSLSLSPGK
light: not shown
scFv: not shown
notes: anti-CD37/anti-CD3
B9: BTE-0140 (bispecific antibody, human IgG1, kappa, L234A L235A)
heavy: QVQLQQWGAGLLKPSETLSLTCAVYGGSFSPYYWSWIRQPPGKGLEWIGEINHSGSTNYNPSLKSRVTISVDTSKNQFSLKLSSVTAADTAVYYCARRAGDFDYWGQGTLVTVSSASTKGPSVFPLAPSSKSTSGGTAALGCLVKDYFPEPVTVSWNSGALTSGVHTFPAVLQSSGLYSLSSVVTVPSSSLGTQTYICNVNHKPSNTKVDKKVEPKSCDKTHTCPPCPAPEAAGGPSVFLFPPKPKDTLMISRTPEVTCVVVDVSHEDPEVKFNWYVDGVEVHNAKTKPREEQYNSTYRVVSVLTVLHQDWLNGKEYKCKVSNKALAAPIEKTISKAKGQPREPQVYTLPPSRDELTKNQVSLSCAVKGFYPSDIAVEWESNGQPENNYKTTPPVLDSDGSFFLVSKLTVDKSRWQQGNVFSCSVMHEALHNHYTQKSLSLSPGK
light: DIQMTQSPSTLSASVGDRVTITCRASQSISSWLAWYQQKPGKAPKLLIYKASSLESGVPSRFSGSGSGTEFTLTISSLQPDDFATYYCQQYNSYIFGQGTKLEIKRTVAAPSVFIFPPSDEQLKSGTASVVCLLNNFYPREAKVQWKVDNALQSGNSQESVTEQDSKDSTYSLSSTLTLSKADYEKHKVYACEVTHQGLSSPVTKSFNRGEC
scFv: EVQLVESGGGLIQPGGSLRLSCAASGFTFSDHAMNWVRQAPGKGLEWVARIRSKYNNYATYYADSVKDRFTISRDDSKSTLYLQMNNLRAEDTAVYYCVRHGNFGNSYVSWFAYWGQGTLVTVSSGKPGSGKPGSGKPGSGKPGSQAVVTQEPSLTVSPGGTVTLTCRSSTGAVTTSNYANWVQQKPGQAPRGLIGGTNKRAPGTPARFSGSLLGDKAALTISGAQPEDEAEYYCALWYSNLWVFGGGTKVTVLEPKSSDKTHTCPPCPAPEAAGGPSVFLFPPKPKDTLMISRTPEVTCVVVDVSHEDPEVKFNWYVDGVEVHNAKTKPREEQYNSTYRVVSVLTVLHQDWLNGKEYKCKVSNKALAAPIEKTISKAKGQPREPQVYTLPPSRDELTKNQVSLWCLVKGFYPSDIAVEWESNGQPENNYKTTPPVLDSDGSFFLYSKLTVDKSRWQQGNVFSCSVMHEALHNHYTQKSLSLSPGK
notes: anti-CD37/anti-CD3
B10: BTE-0145 (bispecific antibody, human IgG1, kappa, L234A L235A)
heavy: QVQLQQWGAGLLKPSETLSLTCAVYGGSFSPYYWSWIRQPPGKGLEWIGEINHSGSTNYNPSLKSRVTISVDTSKNQFSLKLSSVTAADTAVYYCARRAGDFDYWGQGTLVTVSSASTKGPSVFPLAPSSKSTSGGTAALGCLVKDYFPEPVTVSWNSGALTSGVHTFPAVLQSSGLYSLSSVVTVPSSSLGTQTYICNVNHKPSNTKVDKKVEPKSCDKTHTCPPCPAPEAAGGPSVFLFPPKPKDTLMISRTPEVTCVVVDVSHEDPEVKFNWYVDGVEVHNAKTKPREEQYNSTYRVVSVLTVLHQDWLNGKEYKCKVSNKALAAPIEKTISKAKGQPREPQVYTLPPSRDELTKNQVSLSCAVKGFYPSDIAVEWESNGQPENNYKTTPPVLDSDGSFFLVSKLTVDKSRWQQGNVFSCSVMHEALHNHYTQKSLSLSPGK
light: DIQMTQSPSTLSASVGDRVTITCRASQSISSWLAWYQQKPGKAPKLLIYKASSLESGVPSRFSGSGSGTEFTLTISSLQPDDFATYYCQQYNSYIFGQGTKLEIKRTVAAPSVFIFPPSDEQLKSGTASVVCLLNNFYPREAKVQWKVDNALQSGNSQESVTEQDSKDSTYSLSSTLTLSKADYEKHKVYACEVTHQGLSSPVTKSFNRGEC
scFv: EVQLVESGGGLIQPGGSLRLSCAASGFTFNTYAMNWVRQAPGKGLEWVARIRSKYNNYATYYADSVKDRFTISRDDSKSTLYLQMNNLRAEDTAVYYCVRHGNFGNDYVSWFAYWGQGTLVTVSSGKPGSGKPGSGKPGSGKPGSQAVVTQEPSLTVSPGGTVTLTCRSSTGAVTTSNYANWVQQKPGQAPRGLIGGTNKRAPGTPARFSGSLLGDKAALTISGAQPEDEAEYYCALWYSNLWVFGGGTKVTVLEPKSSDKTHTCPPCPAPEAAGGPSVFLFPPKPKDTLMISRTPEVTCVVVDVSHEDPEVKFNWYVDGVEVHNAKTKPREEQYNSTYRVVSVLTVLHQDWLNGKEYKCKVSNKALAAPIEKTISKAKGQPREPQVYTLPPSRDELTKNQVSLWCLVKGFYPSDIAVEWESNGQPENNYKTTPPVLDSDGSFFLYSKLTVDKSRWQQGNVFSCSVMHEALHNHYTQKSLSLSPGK
notes: anti-CD37/anti-CD3
B11: BTE-0139 (bispecific antibody, human IgG1, kappa, L234A L235A)
heavy: QVQLQQWGAGLLKPSETLSLTCAVYGGSFSPYYWSWIRQPPGKGLEWIGEINHSGSTNYNPSLKSRVTISVDTSKNQFSLKLSSVTAADTAVYYCARRAGDFDYWGQGTLVTVSSASTKGPSVFPLAPSSKSTSGGTAALGCLVKDYFPEPVTVSWNSGALTSGVHTFPAVLQSSGLYSLSSVVTVPSSSLGTQTYICNVNHKPSNTKVDKKVEPKSCDKTHTCPPCPAPEAAGGPSVFLFPPKPKDTLMISRTPEVTCVVVDVSHEDPEVKFNWYVDGVEVHNAKTKPREEQYNSTYRVVSVLTVLHQDWLNGKEYKCKVSNKALAAPIEKTISKAKGQPREPQVYTLPPSRDELTKNQVSLSCAVKGFYPSDIAVEWESNGQPENNYKTTPPVLDSDGSFFLVSKLTVDKSRWQQGNVFSCSVMHEALHNHYTQKSLSLSPGK
light: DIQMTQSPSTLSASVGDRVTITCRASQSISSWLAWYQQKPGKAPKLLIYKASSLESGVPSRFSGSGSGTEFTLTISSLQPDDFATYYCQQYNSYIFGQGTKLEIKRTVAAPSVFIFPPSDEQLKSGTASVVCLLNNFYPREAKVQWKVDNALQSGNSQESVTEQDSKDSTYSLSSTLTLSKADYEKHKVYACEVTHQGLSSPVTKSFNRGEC
scFv: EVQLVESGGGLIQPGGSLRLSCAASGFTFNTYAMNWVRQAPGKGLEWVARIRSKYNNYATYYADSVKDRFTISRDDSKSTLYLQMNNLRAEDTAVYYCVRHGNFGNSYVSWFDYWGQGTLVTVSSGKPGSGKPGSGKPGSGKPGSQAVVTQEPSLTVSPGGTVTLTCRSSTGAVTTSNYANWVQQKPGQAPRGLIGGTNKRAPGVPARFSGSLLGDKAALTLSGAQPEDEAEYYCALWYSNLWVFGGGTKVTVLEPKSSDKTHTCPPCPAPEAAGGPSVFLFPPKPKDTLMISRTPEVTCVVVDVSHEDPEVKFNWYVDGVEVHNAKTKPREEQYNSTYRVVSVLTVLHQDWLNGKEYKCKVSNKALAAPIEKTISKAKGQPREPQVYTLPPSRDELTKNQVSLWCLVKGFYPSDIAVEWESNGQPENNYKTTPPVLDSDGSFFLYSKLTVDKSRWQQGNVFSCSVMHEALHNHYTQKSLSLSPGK
notes: anti-CD37/anti-CD3

For this assay, the target named is T1, CD3εδ complex protein (human; alpaca, UniProt P07766 23-126; P04234 22-105).
T1 construct: they are not part of the secreted protein; also called human CD3; CD386 complex protein
T1 sequence (P07766 23-126 limits assumed, stated change not applied, form in doubt, chain 1 of 2): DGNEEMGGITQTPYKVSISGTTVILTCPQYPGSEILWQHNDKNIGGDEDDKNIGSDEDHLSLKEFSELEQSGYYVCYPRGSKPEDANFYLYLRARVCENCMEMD
T1 sequence (P04234 22-105 limits assumed, stated change not applied, form in doubt, chain 2 of 2): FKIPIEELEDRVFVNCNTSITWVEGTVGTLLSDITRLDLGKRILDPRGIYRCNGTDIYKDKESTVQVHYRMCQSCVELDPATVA
In words: ELISA, CD3 complex immobilized. As to the method:
Binding activities of the anti-TSPAN8/anti-CD3 bispecific antibodies BTE-0001 to BTE-0067 to CD3 were evaluated by the ELISA. ELISA was performed according to a conventional method. The […] complex protein obtained in Example 1-3 was immobilized on a plate. BTE-0001 to BTE-0067 were used as the test antibodies. As a secondary antibody, Goat anti-Human IgG Fc, Multi-Species SP ads-HRP (2014-05, available from SouthernBiotech) was used. TMB+Substrate-Chromogen (S1599, available from Dako) was used as the detection reagent. Infinite M200pro (available from Tecan) was used to measure the absorbance. The EC50 values were calculated using variable slope model (four parameters) in GraphPad Prism with the maximum value in the same plate fixed at the top and the minimum value in the blank in the same plate fixed at the bottom. Since BTE-0001 was always measured in each plate as a control, only the EC50 value of BTE-0001 was expressed as the average value of a plurality of plates. […]
A general note: ELISA stands for enzyme-linked immunosorbent assay.
Usually EC50 stands for the concentration giving half of the maximal effect. Low values mean a more potent agent, high ones a less potent agent. B1 gave a concentration giving a half-maximal response (EC50) of 0.0747 µg/mL. The same measure for B2: 0.0644 µg/mL; for B3: 0.0669 µg/mL; for B4: 0.292 µg/mL. B5 yielded an EC50 of 0.071 µg/mL. With B6, a half-maximal response (EC50) required 0.029 µg/mL. Consider B7, for which the EC50 is 1.6 µg/mL. Take B8: the concentration for a half-maximal effect (EC50) worked out at 0.138 µg/mL. B9: the concentration giving a half-maximal response (EC50) amounted to 0.205 µg/mL. Regarding B10, a half-maximal response (EC50) required 0.0854 µg/mL. The same measure for B11: 0.444 µg/mL.

The record behind these values is patent US20250304706A1 (Astellas, published 2025).
